In patent US12723078 (University of Texas, dated 2026):
Residue numbers refer to the chain shown, from its start.

B1: mAb of B cell clone 170 (supernatant) (antibody, V domains shown)
VH: QSVEESGGGLVKPGASLTLSCTASGFDFSSKYYMWWVRQAPGKGLEWIARIYGGSSDSTDYATWARGRFAISRTSSTTVTLRMTSLTAADTATYFCGRVIDGACGYDLWGPGTLVTVSS
VL: ELDLTQTPASVSAAVGGTVTISCQSSQSVHHSQTVHNNQWLAWYQQKPGQPPKLLIYDASKLASGVPSRFTGSGSGTQFSLTISAVQCDDAATYYCQGGYSYGDVYGFGGGTELEIK
notes: rabbit; also called B1-#170
B2: mAb of B cell clone 4 (supernatant) (antibody, V domains shown)
VH: RAVGKESGGGLVKPGASLTLTCKASGFDFSGIYWVCWVRQAPGKGLEWIACFDAERTGNTYYATWAKGRFTISRTSSTTVTLQMTSLTAADTATYFCARSYYMWGPGTLVTVSS
VL: ELVLTQTPSPVSAVVGGSVTINCQSSQSLYNANDLSWYQQKPGQPPKQLIYWASTLASGVPSRFKGSGSGTQFTLSISDVQCDDAATYYCLGEFSCSSFDCHVFGGGTEVVVK
notes: rabbit; also called B1-#4
B3: mAb of B cell clone 93 (supernatant) (antibody, V domains shown)
VH: EQSVEESGGDLVKPGTSLTLTCTASGFSFSGNTICWVRQAPGKRPEWIACIYPSSTSITTYATWAKGRFTVSKTSSTTVTLQMTSLTAADTATYFCARRYAAFLTYGSGAFDPWGPGTLVTISS
VL: ELDLTQTPASVSAAVGGTVTINCQASESIGSALAWYQQKPGQPPKLLIYSASALASGVPSRFKGSGSGTEYTLTISDLECADAATYYCQSYYGSGTTALDTFGGGTEVEIK
notes: rabbit; also called B1-#93
B4: mAb of B cell clone 98 (supernatant) (antibody, V domains shown)
VH: EQSLEESGGDLVKPEGSLTLTCTASGFSFSSSYWICWVRQAPGKGLEWIACVATGSGTTDYASWAKGRFTMSKTSSTTVTLQMTSLTVADTATYFCARIGAFYSFRLWGPGTLVTISS
VL: ELDLTQTPGSVEAAVGGTVTIKCQAGQSIYNYLSWYQQKPGQPPKLLIYSASTLESGVPPRFSGSGSGTEFTLTISDLECADAATYSCQNNYGIGSNYGPGFGGGTEVEIK
notes: rabbit; also called B1-#98
B5: mAb of B cell clone 3 (supernatant) (antibody, V domains shown)
VH: QSLEESEGDLVKPEGSLTLTCKASGFDFSSDAMCWVRQAPGKGLEWIGCIYNGDEITDHASWAKGRFTISKTSPTTVTLQMTSLTVADTATYFCARAVYSDGGAGYPYMYGMDLWGPGTLVTVSS
VL: ELDMTQTPASVEAAVGGTVTIKCQASQNIYSYLVWYQQKPGQPPKLLISKASTLASGVSSRFKGSGSGTEFTLTINDLECADAATYYCQTNYFSSTSHFGVFTFGGGTELEIK
notes: rabbit; also called B1-#3
B6: mAb of B cell clone 5 (supernatant) (antibody, V domains shown)
VH: EQSLEESGGDLVKPEGSLTLTCTASELSFSSAYYMCWVRQAPGKGLEWIGCIYSGDGDTYYANWAKGRFTISKTSSTTVTLQMTSLTDADTATYFCARALDSHYSSFDLWGPGTLVTISS
VL: ELDMTQTPSSVSAAVGDTVTIKCQASQSIYRYLAWYQQKPGQRPSLLIYYGSDLASGVPSRFSGSGSGTEFTLTISDLECADAASYYCQTTYDDYHNGWAFGGGTNVEIN
notes: rabbit; also called B1-#5
B7: mAb of B cell clone 110 (supernatant) (antibody, V domains shown)
VH: QSLEESGGDLVKPEGSLTLTCTASGFSFSSSYWICWVRQAPGKGLEWIGCIYAGNSANTYYASWAKGRFTISKTSSTTVTLQLTSLTAADTATYFCASRNGGAPDGLNLWGPGTLVTISS
VL: ELDLTQTPASVEAAVGGTVTIKCQASLNINSWLAWYQQKPGQPPKLLISYTSSLASGVPSRFKGSGSGTEYTLTINDLECADAATYYCQTTYFGTNGGGFGGGTEVEIK
notes: rabbit; also called B1-#110
B8: mAb of B cell clone 128 (supernatant) (antibody, V domains shown)
VH: RAVGKESGGDLVTLGGSLKLSCKASGIDLSNFYYMCWVRQAPGKGLEWIGCVASDSSRTHYATWPKGRFTISKTSSTTVTLQMTSLTAADTATYFCARGSGASTNGVWWVMGDGMDLWGPGTLVTVSS
VL: ELDMTQTPSSVSAAVGGTVTIKCQASQSISSYLSWYQQKPGQPPKRLIYKASTLPSGVPPRFKGSGSGTEFTLTISDLECADAATYYCQNNYHSGSSNGGGFAFGGGTQVEIK
notes: rabbit
B9: mAb of B cell clone 178 (supernatant) (antibody, V domains shown)
VH: QKQLVESGGGLVQPEGSLALTCTASGFSFSSSYWICWVRQAPGKGLEWIACIYAGSSGSTYYASWVNGRFTVFKTSSTTVTLQMTSLTAADTATYFCARGGTSYRLDLWGPGTLVTVSS
VL: ELVLTQTPSSKSVAVGDTVTINCQASDNVYSNNYTSWFQQKPGQPPKQLLYYAAYRASGVPSRFKGSGSGTEFTLSISDVVCDDAATYYCSGHKDYSDDGSTFGGGTEVEIK
notes: rabbit
B10: mAb of B cell clone 185 (supernatant) (antibody, V domains shown)
VH: SQQLKESGGGLVKPGGTLTLTCKASGIDFNNDYNICWVRQPPGKGLEWIGCIYTGSDSTDYASWVNGRFTISESTSLNTVDLKVTSLTDADTATYFCARDLVTGYATYGYGFILWGPGTLVTVSS
VL: B9 VL
notes: rabbit
B11: mAb of B cell clone 173 (supernatant) (antibody, V domains shown)
VH: QSVEESGGDLVKPGASLTLTCTASGFDFSSNAYLCWVRQAPGKGLEWIGCIYDGTSGDTYYANWAKGRFTISRSSSTTVTLQMTSLTAADTATYFCARDTRSSNYYFNLWGPGTLVTISS
VL: ELVLTQTPSSTSAAVGGTVTINCQASQSVDNNKQLSWYQQKPGQPPKQLIYSASKLASGVPSRFKGSGSGTQFTLTISDLECDDAATYYCAGYYYSGSATDAWAFGGATEVEIN
notes: rabbit
B12: mAb of B cell clone 190 (supernatant) (antibody, V domains shown)
VH: QEQLKESGGDLVKPEGSLTLTCTASGFSFSSDYWVCWVRQAPGKGPEWIGCIYTGDDDTYYASWAKGRFTISKTSSTTVTLEVTSLTAADTATYFCARGLTIGTAELYFWGPGTVVTVSS
VL: ELVLTQTPSPVSAAVGGTVTINCQASQSISNELSWYQQKPGQPPKLLIYLASTLDSGVPSRFKGSGSGTQFTLTISDLECADAATYYCQSHYYGGSSDYGWAFGGGTEVVVK
notes: rabbit; also called B1-#190
B13: mAb of B cell clone 204 (supernatant) (antibody, V domains shown)
VH: QSVKESGGGLVKPGGTLTLTCTASGFSFSSSYCMCWVRQAPGKGLELIACIYTDSSGATYYASWAKGRFTISKSSSTTITLQMTSLTAADTATYFCARGWDYEDPGYTDTTYFSLWGPGTLVTVSS
VL: ELDMTQTPSSVEAAVGGTVTIKCQASQTIYTNLAWYQQKPGQPPNLLIYAASTLASGVSSRFKGSGSGTEFTLTISDLECADAATYYCQSYYGSSTTGNGFGGGTEVEIN
notes: rabbit
B14: mAb of B cell clone 176 (supernatant) (antibody, V domains shown)
VH: B13 VH with V3L, K4E, G7E
VL: B13 VL with M4L, N110K
notes: rabbit
B15: mAb of B cell clone 227 (supernatant) (antibody, V domains shown)
VH: B13 VH
VL: ELDLTQTASPVSGAVGGTVTIKCQASQSIASDLAWYQQKPGQPPNLLIYAASTLASGVSSRFKGSGSGTEFTLTISDLECADAATYYCQSYYGSSTTGNGFGGGTEVVVK
notes: rabbit
B16: mAb of B cell clone 160 (supernatant) (antibody, V domains shown)
VH: QEQLVESGGGLVQPEGSLTLTCKASGIDFSSGYWICWVRQAPGKGLELIACIFTSSGTTYYASWAKGRFTISKTSSTTVTLQMTSLTAADTATYFCARDIYSYGMDLWGPGTLVTVSS
VL: ELDLTQTPASVSAAVGGTVTIKCQASQSISSSYLAWYQQKPGQPPKLLIYSASSTASGVPSRFKGSGSGTQFTLTISDLECADAATYYCQSTYISSSKYGAVFGGGTELEIK
notes: rabbit; also called B1-#160
B17: mAb of B cell clone 154 (supernatant) (antibody, V domains shown)
VH: QSVKESGGDLVKPGASLTLTCKASGFSFSSGHYMYWVRQAPGKGLEWIACIYAGSDTGSTWYASWAKGRFTISKTSSTTVTLQMTSLTAADTATYFCARSSNSYGNYGVSNLWGPGTLVTVSS
VL: ELDLTQTPASVEAAVRGTVTIKCQASQSISYYLAWYQQKPGQPPKVLIYKASTLASGVPPRFKGSGFGTEFTLTISDLECADAATYYCQSTYGRDNNDLFFAFGGGTEVEIK
notes: rabbit
B18: mAb of B cell clone 115 (supernatant) (antibody, V domains shown)
VH: EQSVKESGGGLVQPEGSLTLTCTASGFSFSSSYWICWVRQAPGKGLEWIGCIATGTGSTYYANWVNGRFTMSKPSSTTVTLQMTTLTAADTATYFCARGGGYWSFSLWGPGTLVTISS
VL: ELVMTQTPSSVEAAVGGTVTNKCQASEDIYSNLAWYQQKPGQPPKLLIYGATTLASGVPSRFKGSGSGTEFTLTISDLECADAATYYCQAESNDVWAFGGGTEVVVK
notes: rabbit
B19: mAb of B cell clone 125 (supernatant) (antibody, V domains shown)
VH: EQSLEESGGGLVQPEGSLTLTCTASGFSFTKNYYMCWVRQAPGKGLEWIGCIYAGSTNTFYASWAKGRFTISKASSTTVDLKMTSLTVADTATYFCARDFVSYLNLWGPGTLVTVSS
VL: ELDLTQTPSSSSAAVGGTVTINCQASQSVYNKNYLSWFQQKPGQPPKLLIYYASTLASGVPSRFKGSGSGTEFTLTISDVVCDDAATYYCAAYKGVSDDGISFGGGTEVEIK
notes: rabbit
B20: mAb of B cell clone 175 (supernatant) (antibody, V domains shown)
VH: ESEGGLVKPGGTLTLTCKVSGIDFNSYKYYYMCWVRQAPGKGLEWIGCMSTASRNIYYASWAKGRFTISETSSTSVTLQMTTLTAADTATYFCAKSHGGDGGYGVVLWGPGTLVTISS
VL: ELVMTQTPSSVSAAVGDTLTINCQASETISNRLAWYQQKPGQPPKLLIYSASTLESGVPSRFRGSGSGTQFTLTISDLECADAATYYCQSIRSSSGVVHPNTFGGGTEVEIK
notes: rabbit
B21: mAb of B cell clone 167 (supernatant) (antibody, V domains shown)
VH: EQLMEESGGGLVQPEGSLTLTCTASRFSLSNMNVMCWVRQAPGKGLEWIGCINIGGTNIWYASWAKGRFTISKTSSTTVTLQMTSLTVADTATYFCARSYITDRIYDYDFWGPGTLVTISS
VL: ELDMTQTPSPVSAAVGGSVTISCQASQTIYNNKNLAWYQQKPGQPPKLLIYQASKLASGVSSRFSGSGSGTQFTLTISGVQCDDAATYYCQGEFSCSSGDCTTFGGGTEVVVK
notes: rabbit
B22: mAb of B cell clone 117 (supernatant) (antibody, V domains shown)
VH: EQSLEESGGDLVKPEGSLTLTCTASGFSFSSSYYMCWIRQPPGRGLEWLACIYTGSDSTYYAPWAKGRFTISRTSSTTVTLQMTSLTAADTATYFCAGDWDYADAAGYYVARGFNLWGPGTLVTISS
VL: ELDLTQTPASVSAAVGGTVTIKCQASEDIYSNLAWYQQKPGQPPKLLIYKASTLASGVPPRFKGSGSGTEYTLTISGVQCDDAATYACQTTYWTTTDDNPFGGGTEVEIK
notes: rabbit
B23: mAb of B cell clone 162 (supernatant) (antibody, V domains shown)
VH: QSVKESEGGLVQPGGSLTLSCKASGIDFSSAYMSWVRQAPGKGLEWIGKMRINDRSHYANWVNGRFTISNHNDQNTVELQLNSLTAADTATYFCARIATGTNVDDFWGPGTLVTISS
VL: ELVMTQTASPVSAAVGGTVTISCQSSQSVYSNNWLSWYQQKPGQPPKRLIYKASTLETGVPSRFKGSGSGKQFTLTISDLECDDAATYYCAGGYSGDLYAFGGGTEVVVK
notes: rabbit; also called B1-#162

Each binder was assayed against T1, human LILRB1 recombinant protein (human, UniProt Q8NHL6 24-461) (assay: ELISA, B cell supernatant).
T1 construct: The ELISA method says only 'LILRB1 recombinant proteins' coated on plates; also called leukocyte immunoglobulin-like receptor subfamily B member 1
T1 sequence (Q8NHL6 24-461 limits assumed): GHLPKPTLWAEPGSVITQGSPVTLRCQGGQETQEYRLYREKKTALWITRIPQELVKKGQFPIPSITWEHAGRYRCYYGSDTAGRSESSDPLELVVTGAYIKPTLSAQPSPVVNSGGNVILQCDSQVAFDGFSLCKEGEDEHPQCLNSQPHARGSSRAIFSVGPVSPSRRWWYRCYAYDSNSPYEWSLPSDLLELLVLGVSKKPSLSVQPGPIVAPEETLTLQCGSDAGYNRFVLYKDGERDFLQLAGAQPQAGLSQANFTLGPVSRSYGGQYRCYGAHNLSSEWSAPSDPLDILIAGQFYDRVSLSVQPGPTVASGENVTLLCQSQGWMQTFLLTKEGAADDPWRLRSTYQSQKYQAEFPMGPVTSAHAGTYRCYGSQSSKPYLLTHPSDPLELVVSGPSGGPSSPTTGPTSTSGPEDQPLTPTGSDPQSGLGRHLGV

OD450 | Binder
2.26 OD450 | B1
2.47 OD450 | B2
1.72 OD450 | B3
2.01 OD450 | B4
2.11 OD450 | B5
2.27 OD450 | B6
2.31 OD450 | B7
2.51 OD450 | B8
1.81 OD450 | B9
1.67 OD450 | B10
2.14 OD450 | B11
1.9 OD450 | B12
2.03 OD450 | B13
2.06 OD450 | B14
2.08 OD450 | B15
1.87 OD450 | B16
1.98 OD450 | B17
1.53 OD450 | B18
2.43 OD450 | B19
2.02 OD450 | B20
1.12 OD450 | B21
2.23 OD450 | B22
2.02 OD450 | B23
